Source: patent EP4659811A1 (Université de Strasbourg, dated 2025)

Experiments:
[1] = target: VP1 capsid protein on BKV pseudovirions of genotype IVc2 (A-66H; AB369093) (BK virus genotype IVc2 (A-66H)); test: cell-based or functional assay
[2] = target: VP1 capsid protein on BKV pseudovirions of genotype II (GBR-12; AB263920) (BK virus genotype II (GBR-12)); test: cell-based or functional assay
[3] = target: VP1 capsid protein on BKV pseudovirions of genotype Ia (BK-D; JF894228) (BK virus genotype Ia (BK-D)); test: cell-based or functional assay
[4] = target: T1, VP1 pentamer of BKV genotype II (recombinant) (BK virus genotype II, UniProt P14996 30-300); test: ELISA, coated VP1 pentamer
T1 construct: also called GII; VP1 geno II pentamer; not shown: N-terminal His-tag of pESPRIT002; C-terminal biotin acceptor peptide (BAP) of pESPRIT002

[5] = target: T2, VP1 pentamer of BKV genotype IV (recombinant) (BK virus genotype IV, UniProt P14996 30-300); test: ELISA, coated VP1 pentamer
T2 construct: also called GIV; VP1 BKV subtype IV; not shown: N-terminal His-tag of pESPRIT002; C-terminal biotin acceptor peptide (BAP) of pESPRIT002

B1: antibody B8P7 (antibody, V domains shown)
VH: QVQLQESGPGLVRPSETLSLTCTVSGGSISPYYWNWIRQPPGKGLEWIGYIYYSGNTKYNPSLKSRVTISVDTSKNQFSLKLSSVSAADTAVYYCARDSCSGTCYLGDNWFDPWGQGTLVTVSS
VL: QSVLTQPPSVSGAPGQRVTISCTGSSSNIGANNDVHWYQHLPGTAPKLLIYGNNHRPSGVPDRFSGSKSGTSASLAITGLQAEDEADYYCQSYDSSLSTSKVFGGGTKLTVL
- Neutralization PSV IC50 [1]: 0.164 µg/mL
- Neutralization PSV IC50 [2]: 0.4 ng/mL
- Neutralization PSV IC50 [3]: 0.0019 µg/mL
- EC50 [4]: 0.04 µg/mL
- EC50 [5]: 3 µg/mL

B2: antibody G6P7 (antibody, V domains shown)
VH: QVQLQESGPGLVRPSETLSLTCTVSGGSISPYYWNWIRQPPGKGLEWIGYIYYSGNTKYNPSLKSRVTISVDTSKNQFSLKLSSVSAADTAVYYCARDSCSGTCYLGDNWFDPWGQGTLVTVSS
VL: QSVLTQPPPVSGAPGQRVTISCTGSSSNIGANNDVHWYQHLPGTAPKLLIYGNNHRPSGVPDRFSGSKSGTSASLAITGLQAEDEADYYCQSYDSSLSTSKVFGGGTKLTVL
- Neutralization PSV IC50 [1]: 0.883 µg/mL
- Neutralization PSV IC50 [2]: 4.1 ng/mL
- Neutralization PSV IC50 [3]: 0.0038 µg/mL
- EC50 [4]: 0.2 µg/mL
- EC50 [5]: 2.5 µg/mL

B3: antibody C4P6 (antibody, V domains shown)
VH: QVQLQESGPGLVRPSETLSLTCTVSGGSISPYYWNWIRQPPGKGLEWIGYIYYSGNTKYNPSLKSRVTISVDTSKNQFSLKLSSVSAADTAVYYCARDSCSGTCYLGGNWFDPWGQGTLVTVSS
VL: QSVLTQPPSVSGAPGQRVTISCTGSSSNIGANNDVHWYQHLPGTAPKLLIYGNNHRPSGVPDRFSGSKSGTSASLAITGLQAEDEADYYCQSYDSSLSTSKVFGGGTKLTVL
- Neutralization PSV IC50 [1]: 0.726 µg/mL
- Neutralization PSV IC50 [2]: 104 ng/mL
- Neutralization PSV IC50 [3]: 0.32 µg/mL
- EC50 [4]: 2.5 µg/mL
- EC50 [5]: 2.25 µg/mL

B4: antibody F3P6 (antibody, V domains shown)
VH: QVQLVQSGAEVKKPGASVKVSCKASGYTFTTHIIHWVRQAPGQRLEWMGWINAGNGNTHYSEKFQGRVTLTRDTSASTAYMELSSLRSEDTAIYYCAREDQWLGRSPLEYWGQGTLVTVSS
VL: EIVLTQSPGTLSLSPGERATLSCRASQSVSSSYLAWYQHKPGQAPRLLIYGASSRATGIPDRFSGSGSGTDFTLTISRLEPEDFAVYYCQQYGNSYPWTFGQGTKVEIK
- Neutralization PSV IC50 [1]: 0.262 µg/mL
- Neutralization PSV IC50 [2]: 6.2 ng/mL
- Neutralization PSV IC50 [3]: 0.363 µg/mL
- EC50 [4]: 0.15 µg/mL
- EC50 [5]: 1.25 µg/mL

B5: antibody G5P6 (antibody, V domains shown)
VH: QVQLVQSGAEVKKPGASVKVSCKASGYTFTTHIIHWVRQAPGQRLEWMGWINAGNGNTKYSEKFQGRVTLTRDTSASTAYMELSSLRSEDTAIYYCAREDQWLGRSPLEYWGQGTLVTVSS
VL: EIVLTQSPGTLSLSPGERATLSCRASQSVSSSYLAWYQHKPGQAPRLLIYGASSRATGIPDRFSGSGSGTDFTLTVSRLEPEDFAVYYCQQYGNSYPWTFGQGTKVEIK
- Neutralization PSV IC50 [1]: 0.0889 µg/mL
- Neutralization PSV IC50 [2]: 8.2 ng/mL
- Neutralization PSV IC50 [3]: 0.299 µg/mL
- EC50 [4]: 0.28 µg/mL
- EC50 [5]: 0.7 µg/mL

B6: antibody C11P1 (antibody, V domains shown)
VH: QVQLQESGPGLVKPSETLSLTCTVSGGSIRNSYWSWIRQPPGKGLEWIGYIYYTGTTNSNPSLKSRATISVHMSQNQISLKLNSVTPADTAVYYCAQGGGSGDLHYWGQGTLVTVSS
VL: NFMLTQPASVSGSPGQSITISCTGTRSDVGGYNYVSWYQQHPGKAPKLMIYDISSRPSGVSNRFSASKSGNTASLTISGLQAEDEADYYCISFATGYTWVFGGGTRLTVL
- Neutralization PSV IC50 [1]: 0.0942 µg/mL
- Neutralization PSV IC50 [2]: 1.5 ng/mL
- Neutralization PSV IC50 [3]: 0.351 µg/mL
- EC50 [4]: 0.045 µg/mL
- EC50 [5]: 0.22 µg/mL

B7: antibody B2P8 (antibody, V domains shown)
VH: QVQLQESGPGLVKPSETLSLTCTVSGGSIRNSYWSWIRQPPGKGLEWIGYIYYTGTTNSNPSLKSRVTISVHMSQNQISLKLNSVTPADTAVYYCAQGGGSGDLHYWGQGTLVTVSS
VL: EIVLTQSPDTLSLSPGARATLSCRASQSVRSNYLAWYQQKPGQAPRLLIYGASSRATAIPDRFSGSGSGTDFTLTITRLEPEDFAVYYCHQYASSPRTFGQGTKVEIK
- Neutralization PSV IC50 [1]: > 50 µg/mL
- Neutralization PSV IC50 [2]: > 50000 ng/mL
- Neutralization PSV IC50 [3]: > 50 µg/mL
- EC50 [4]: 5 µg/mL
- EC50 [5]: 12 µg/mL

B8: antibody E7P5 (antibody, V domains shown)
VH: QVQLQESGPGLVKPSETLSLTCTVSGGSIRNSYWSWIRQSPGKGLEWIGYIYYTGSTNSNPSLKSRLTVSVHMSQNQISLKLNSVTPADTAVYYCAQGGGSGDLHYWGQGTLVTVSS
VL: QSALTQPASVSGSPGQSITISCTGTRSDVGGYNYVSWYQQHPGKAPKLIIYDISSRPSGVSNRFSASKSGNTASLTISGLQAEDEADYYCISFATGYTWVFGGGTSLTVL
- Neutralization PSV IC50 [1]: 0.0056 µg/mL
- Neutralization PSV IC50 [2]: 0.2 ng/mL
- Neutralization PSV IC50 [3]: 0.0719 µg/mL
- EC50 [4]: 0.055 µg/mL
- EC50 [5]: 0.08 µg/mL

B9: antibody G5P1 (antibody, V domains shown)
VH: QVQLQESGPGLVKPSGTLSLTCTVSGGSIRNSYWSWIRQPPGKGLEWIGYIYYTGTTNSNPSLKSRVTISVHMSRNQISLKLNSVTPADTAVYYCAQGGGSGDLHYWGQGTLVTVSS
VL: NFMLTQPASVSGSPGQSITISCTGTRSDVGGYNYVSWYQQHPGKAPKLMIYDISSRPSGVSNRFSASKSGNTASLTISGLQAEDEADYYCISFATGYTWVFGGGTRLTVL
- Neutralization PSV IC50 [1]: 0.108 µg/mL
- Neutralization PSV IC50 [2]: 1.6 ng/mL
- Neutralization PSV IC50 [3]: 0.538 µg/mL
- EC50 [4]: 0.07 µg/mL
- EC50 [5]: 2.5 µg/mL

B10: antibody E2P6 (antibody, V domains shown)
VH: EVQLVESGGGLIQPGGSLRLSCAASGFTVSTNCMSWVRQAPGTGLEWVSVIYSGGTTYYADSVKGRFTISRDNSRNTLYLQMNGLRAEDTAVYYCARSVDTYDIYALDVWGQGTTVTVSS
VL: DIQMTQSPSTLSASVGDRVTITCRASQSISRWLAWYQQKPGKAPKLLIYKASGLHSGAPSRFSGSGSGTEFTLTISGLQPDDFATYFCQQYNSYPWTFGQGTKVEIK
- Neutralization PSV IC50 [1]: > 50 µg/mL
- Neutralization PSV IC50 [2]: > 50000 ng/mL
- Neutralization PSV IC50 [3]: > 50 µg/mL
- EC50 [4]: 0.14 µg/mL
- EC50 [5]: 0.6 µg/mL

B11: antibody C9P1 (antibody, V domains shown)
VH: EVQLLESGGGLVQPGGSLRLSCVTSGFTFSSYSMTWVRQAPGKGLEWVSYISSSSRTISYADSVQGRFTISRDNAKNVLYLQMNSLRAEDTAVYYCARQAVAHFDYWGQGTLVTVSS
VL: EIVLTQSPGTLSLSPGERATLSCRASQRVSSNYLAWYQQKPGQAPRLLIYGASSRATGIPDRFSGSGSGTDFTLTISRLEPEDFAVYYCQQYGTSPRSFGQGTKVEIK
- Neutralization PSV IC50 [1]: > 50 µg/mL
- Neutralization PSV IC50 [2]: > 50000 ng/mL
- Neutralization PSV IC50 [3]: > 50 µg/mL
- binding result [4]: no binding (tested: starting at 50 µg/mL)
- binding result [5]: no binding (tested: starting at 50 µg/mL)

B12: antibody E6P5 (antibody, V domains shown)
VH: EVQLVESGGGLVQPGRSLRLSCSASGFTFDDHAMHWVRQAPGKGLEWVAGINWNSASIVYADSVKGRFTISRDNVKNSLYLQMNSLRADDTALYYCAKDFGLWFGESRGIDAWGRGTTVTVSS
VL: DIVMTQSPLSLPVTPGEPASISCRPSQSLLHSNGYNYLNWYLQKPGRSPQLLIYLGSNRASGVPDRFSGSGSGTDFTLKISRVEAEDVGIYYCMQALQTPITFGQGTRLEIK
- Neutralization PSV IC50 [1]: 1.19 µg/mL
- Neutralization PSV IC50 [2]: 232 ng/mL
- Neutralization PSV IC50 [3]: 0.0008 µg/mL
- EC50 [4]: 0.6 µg/mL
- EC50 [5]: 3 µg/mL

B13: antibody G7P7 (antibody, V domains shown)
VH: QVQLQESGPGLVRPSQTLSLTCTVSGGSMTSGSYYWSWIRQPAEKGLEWIGRIYTSGRTDYNPSLKSRVAMSIDTSKNQFSLRLTSVTAADTAVYYCARWGDSSAYYYVGDPWGRGTPVTVSS
VL: DIQMTQSPSSLSASIGDRVTITCRASQNINTYLYWYQQKPGKAPQLLIYAASNLQTGAPSRFSGSGSGTDFTLTISSLQPADFATYYCQQSFSLPHTFGQGTKLEIK
- Neutralization PSV IC50 [1]: 0.0036 µg/mL
- Neutralization PSV IC50 [2]: 0.7 ng/mL
- Neutralization PSV IC50 [3]: 12.5 µg/mL
- EC50 [4]: 0.06 µg/mL
- EC50 [5]: 0.04 µg/mL

B14: antibody G8P6 (antibody, V domains shown)
VH: QVQLQESGPGLVRPSQTLSLTCTVSGGSMTSGSYYWSWIRQPAEKGLEWIGRIYTSGRTDYNPSLKSRVAMSIDTSKNQFSLRLTSVTAADTAVYYCARWGDSSAYYYVGDPWGRGTTVTVSS
VL: DIQMTQSPSSLSASIGDRVTITCRASQNINTYLYWYQQKPGKAPQLLIYAASNLQTGAPSRFSGSGSGTDFTLTISSLQPADFATYYCQQSFSLPHTFGQGTKLEIK
- Neutralization PSV IC50 [1]: 0.0582 µg/mL
- Neutralization PSV IC50 [2]: 5.8 ng/mL
- Neutralization PSV IC50 [3]: 6.44 µg/mL
- EC50 [4]: 0.08 µg/mL
- EC50 [5]: 0.06 µg/mL

B15: antibody C6P7 (antibody, V domains shown)
VH: QVQLQESGPGLVRPSQTLSLTCTVSGGSMTSGSYYWSWIRQPAEKGLEWIGRIYTSGRTDYNPSLKSRVAMSIDTSKNQFSLRLTSVTAADTAVYYCARWGDSSAYYYVGDPWGRGTPVTVSS
VL: DIQMTQSPSSLSASIGDRVTITCRASQNINTYLYWYQQKPGKAPQLLIYAASNLQTGAPSRFSGSGSGTDFTLTISSLQPADFATYYCQQSFSLPHTFGQGTKVEIK
- Neutralization PSV IC50 [1]: 0.0053 µg/mL
- Neutralization PSV IC50 [2]: 0.2 ng/mL
- Neutralization PSV IC50 [3]: 0.104 µg/mL
- EC50 [4]: 0.55 µg/mL
- EC50 [5]: 0.08 µg/mL

B16: antibody B7P6 (antibody, V domains shown)
VH: EVQLVQSGAELKKPGESLKISCKGSGFTFTNYWIAWVRQMPGKGLEWMGIIYPDDSDARYSPSFEGQVTISVDKSISTAYLQWSSLKASDTAIYYCARGGFCSGSVCYNPAWFDLWGQGTLVTVSS
VL: DIQMTQSPSSLSASVGDRVTITCRASQTINTYLNWYLQKPGKAPKLLISDASSLETGVPSRFSGSGSGTDFTLTISSLQPDDFATYYCQQSYSTPLTFGGGTKVEIK
- Neutralization PSV IC50 [1]: 0.121 µg/mL
- Neutralization PSV IC50 [2]: 4.4 ng/mL
- Neutralization PSV IC50 [3]: 0.0479 µg/mL
- EC50 [4]: 0.04 µg/mL
- EC50 [5]: 0.1 µg/mL
